In patent US20190241648A1 (STATEN BIOTECHNOLOGY B V, published 2019):
Ends that are not written are not given here.

Legend:
ApoC3 peptide S62F = target: T1, ApoC3 peptide S62F (human, not fully specified; cyclic (thioether)); assay: cyclic peptide substitution array
T1 peptide: DKFFEFWDLDPEV
Text: (§1) S62 and D68 of mature huApoC3 were also highly conserved; substitution of S62 by A or V, and substitution of D68 by E or P, caused decrease of spot intensities by ˜60% or higher. […] Amino acid F64 was completely variable.
(§2) Pre: staining of one of the ApoC3 peptide microarrays was done with the secondary antibody goat anti-human IgG (Fe) DyLight680 (1:5000) and control antibody mouse monoclonal anti-HA (12CA5) DyLight800 (1:2000) to investigate background interactions of the secondary antibody with the antigen-derived peptides that could interfere with the main assays. Subsequent incubation of other ApoC3 peptide microarrays with antibody samples was followed by staining with secondary and control antibodies as well as read-out at scanning intensities of 7/7 (red/green). The additional HA peptides framing the peptide arrays were stained as internal quality control to confirm the assay quality and the peptide microarray integrity.

ApoC3 peptide K60G = target: T2, ApoC3 peptide K60G (human, cyclic (thioether)); assay: cyclic peptide substitution array
T2 peptide: DGFSEFWDLDPEV
Text: as §1, §2

ApoC3 peptide K60I = target: T3, ApoC3 peptide K60I (human, cyclic (thioether)); assay: cyclic peptide substitution array
T3 peptide: DIFSEFWDLDPEV
Text: as §1, §2

ApoC3 peptide D68L = target: T4, ApoC3 peptide D68L (human, cyclic (thioether)); assay: cyclic peptide substitution array
T4 peptide: DKFSEFWDLLPEV
Text: as §1, §2

ApoC3 peptide F61M = target: T5, ApoC3 peptide F61M (human, cyclic (thioether)); assay: cyclic peptide substitution array
T5 peptide: DKMSEFWDLDPEV
Text: as §1, §2

ApoC3 peptide P69M = target: T6, ApoC3 peptide P69M (human, not fully specified; cyclic (thioether)); assay: cyclic peptide substitution array
T6 peptide: DKFSEFWDLDMEV
Text: as §1, §2

ApoC3 peptide E63P = target: T7, ApoC3 peptide E63P (human, cyclic (thioether)); assay: cyclic peptide substitution array
T7 peptide: DKFSPFWDLDPEV
Text: as §1, §2

ApoC3 peptide L67Q = target: T8, ApoC3 peptide L67Q (human, thioether (positions not given here); not fully specified (bridges); also: thioether between a C-terminal Cys side chain and a modified N-terminus, the Cys is not in the chain); assay: cyclic peptide substitution array
T8 peptide: DKFSEFWDQDPEV
Text: as §1, §2

ApoC3 peptide D66T = target: T9, ApoC3 peptide D66T (human, not fully specified; cyclic (thioether)); assay: cyclic peptide substitution array
T9 peptide: DKFSEFWTLDPEV
Text: as §1, §2

ApoC3 peptide W65V = target: T10, ApoC3 peptide W65V (human, cyclic (thioether)); assay: cyclic peptide substitution array
T10 peptide: DKFSEFVDLDPEV
Text: as §1, §2

ApoC3 peptide E70W = target: T11, ApoC3 peptide E70W (human, cyclic (thioether)); assay: cyclic peptide substitution array
T11 peptide: DKFSEFWDLDPWV
Text: as §1, §2

ApoC3 peptide … D68A = target: T12, ApoC3 peptide … D68A (human, not fully specified (bridges); also: cyclic constrained); assay: peptide microarray
T12 peptide: DKFSEFWDLAPEV
In short: (§3)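 ApoC3 peptide microarrays incubated with antibody samples and then stained with goat anti-human IgG (Fc) DyLight680 plus anti-HA DyLight800 control antibody. Scanned at intensity 7/7 (red/green); a secondary-only prestain checked for background, and framing HA peptides served as quality control.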

ApoC3 peptide … W65C = ApoC3 peptide … W65C (human, cyclic constrained); assay: peptide microarray
In short: as §3

ApoC3 peptide … K60E = target: T13, ApoC3 peptide … K60E (human, not fully specified (bridges); also: cyclic constrained); assay: peptide microarray
T13 peptide: DEFSEFWDLDPEV
In short: as §3

ApoC3 peptide … F61E = target: T14, ApoC3 peptide … F61E (human, cyclic constrained); assay: peptide microarray
T14 peptide: DKESEFWDLDPEV
In short: as §3

ApoC3 peptide … P69E = target: T15, ApoC3 peptide … P69E (human, not fully specified (bridges); also: cyclic constrained); assay: peptide microarray
T15 peptide: DKFSEFWDLDEEV
In short: as §3

ApoC3 peptide … E63F = ApoC3 peptide … E63F (human, cyclic constrained); assay: peptide microarray
In short: as §3

ApoC3 peptide … W65F = ApoC3 peptide … W65F (human, cyclic constrained); assay: peptide microarray
In short: as §3

ApoC3 peptide … D59I = target: T16, ApoC3 peptide … D59I (human, cyclic constrained); assay: peptide microarray
T16 peptide: IKFSEFWDLDPEV
In short: as §3

ApoC3 peptide … F61I = target: T17, ApoC3 peptide … F61I (human, cyclic constrained); assay: peptide microarray
T17 peptide: DKISEFWDLDPEV
In short: as §3

ApoC3 peptide … S62I = ApoC3 peptide … S62I (human, cyclic constrained); assay: peptide microarray
In short: as §3

ApoC3 peptide … F64I = target: T18, ApoC3 peptide … F64I (human, not fully specified (bridges); also: cyclic constrained); assay: peptide microarray
T18 peptide: DKFSEIWDLDPEV
In short: as §3

ApoC3 peptide … D66K = target: T19, ApoC3 peptide … D66K (human, not fully specified (bridges); also: cyclic constrained); assay: peptide microarray
T19 peptide: DKFSEFWKLDPEV
In short: as §3

ApoC3 peptide … D59M = target: T20, ApoC3 peptide … D59M (human, cyclic constrained); assay: peptide microarray
T20 peptide: MKFSEFWDLDPEV
In short: as §3

ApoC3 peptide … S62N = ApoC3 peptide … S62N (human, cyclic constrained); assay: peptide microarray
In short: as §3

ApoC3 peptide … D66Q = target: T21, ApoC3 peptide … D66Q (human, not fully specified (bridges); also: cyclic constrained); assay: peptide microarray
T21 peptide: DKFSEFWQLDPEV
In short: as §3

ApoC3 peptide … E63R = ApoC3 peptide … E63R (human, cyclic constrained); assay: peptide microarray
In short: as §3

ApoC3 peptide … E70R = target: T22, ApoC3 peptide … E70R (human, not fully specified (bridges); also: cyclic constrained); assay: peptide microarray
T22 peptide: DKFSEFWDLDPRV
In short: as §3

ApoC3 peptide … D59T = target: T23, ApoC3 peptide … D59T (human, cyclic constrained); assay: peptide microarray
T23 peptide: TKFSEFWDLDPEV
In short: as §3

ApoC3 peptide … P69T = ApoC3 peptide … P69T (human, cyclic constrained); assay: peptide microarray
In short: as §3

ApoC3 peptide … E70T = target: T24, ApoC3 peptide … E70T (human, cyclic constrained); assay: peptide microarray
T24 peptide: DKFSEFWDLDPTV
In short: as §3

ApoC3 peptide … D59V = target: T25, ApoC3 peptide … D59V (human, not fully specified (bridges); also: cyclic constrained); assay: peptide microarray
T25 peptide: VKFSEFWDLDPEV
In short: as §3

ApoC3 peptide … W65V = target: T26, ApoC3 peptide … W65V (human, not fully specified (bridges); also: cyclic constrained, ring type and places not given here); assay: peptide microarray
T26 peptide: DKFSEFVDLDPEV
In short: as §3

ApoC3 peptide … E63W = ApoC3 peptide … E63W (human, cyclic constrained); assay: peptide microarray
In short: as §3

ApoC3 peptide … L67Y = target: T27, ApoC3 peptide … L67Y (human, not fully specified (bridges); also: cyclic constrained); assay: peptide microarray
T27 peptide: DKFSEFWDYDPEV
In short: as §3

B1: Llama antibody 5E5 (antibody, V domains shown)
VH: QLQLVESGGGLVQPGGSLRLSCAASGFTFGTYSMRWVRQVPRKALEWVSSISTDGGGTAYRDSVKGRFTISRDNAKNTLYLQMNNLKPEDTAIYYCVIAGYSDWGQGTQVTVSS
VL: ATMLTQSPGSLSVVPGESASISCKTSQGLVHSDGKTYFYWFLQKPGQSPQQLIYQVSNRASGVPDRFTGSGSGTDFTLKISGVKAEDAGVYYCAQGTYYPHTFGSGTRLEIK
notes: detected with goat anti-human IgG (Fc); also called mAb 5E5
For B1, the “% of binding to wild-type peptide” value (ApoC3 peptide S62F) was 1.25%, the “% of binding to wild-type peptide” value (ApoC3 peptide K60G) was 143% and the “% of binding to wild-type peptide” value (ApoC3 peptide K60I) was 106%. The “% of binding to wild-type peptide” value (ApoC3 peptide D68L) was 0%, the “% of binding to wild-type peptide” value (ApoC3 peptide F61M) was 68.7% and the “% of binding to wild-type peptide” value (ApoC3 peptide P69M) was 29.3%. For the same binder, the “% of binding to wild-type peptide” value (ApoC3 peptide E63P) was 81.2%, the “% of binding to wild-type peptide” value (ApoC3 peptide L67Q) was 3.99% and the “% of binding to wild-type peptide” value (ApoC3 peptide D66T) was 0%. The “% of binding to wild-type peptide” value (ApoC3 peptide W65V) was 17.9% and the “% of binding to wild-type peptide” value (ApoC3 peptide E70W) was 35.4%.

B2: anti-ApoC3 antibody 6A6 (antibody, V domains shown)
VH: EVQLVESGGGLVQPGGSLRLSCAASGFTFSSYAGRWVRQVPGKGLEWVSSINAGGGSTSYADSVKGRFTISRDNAKNTLYLQMNSLKPEDTAKYYCTQNSYRYWGQGTRVAVSS
VL: DVVLTQTPGSLSVVPGESASISCKASQSLIHTDGKTYLYWLLQKPGQRPQLLIYQVSSHESGVPDRFTGSGSGTDFTLKISGVKAEDAGVYYCAQATYNPRTFGQGTKLEIK
notes: it was detected with goat anti-human IgG (Fc); also called mAb 6A6; llama antibody 6A6
For B2, the “% of binding to wild-type peptide” value (ApoC3 peptide … D68A) was 0%, the “% of binding to wild-type peptide” value (ApoC3 peptide … W65C) was 16% and the “% of binding to wild-type peptide” value (ApoC3 peptide … K60E) was 223%. For the same binder, the “% of binding to wild-type peptide” value (ApoC3 peptide … F61E) was 83.9%, the “% of binding to wild-type peptide” value (ApoC3 peptide … P69E) was 152% and the “% of binding to wild-type peptide” value (ApoC3 peptide … E63F) was 8.5%. The “% of binding to wild-type peptide” value (ApoC3 peptide … W65F) was 55.3%, the “% of binding to wild-type peptide” value (ApoC3 peptide … D59I) was 103% and the “% of binding to wild-type peptide” value (ApoC3 peptide … F61I) was 44.3%. The “% of binding to wild-type peptide” value (ApoC3 peptide … S62I) was 129%, the “% of binding to wild-type peptide” value (ApoC3 peptide … F64I) was 100% and the “% of binding to wild-type peptide” value (ApoC3 peptide … D66K) was 0.33%. For the same binder, the “% of binding to wild-type peptide” value (ApoC3 peptide … D59M) was 60.2%, the “% of binding to wild-type peptide” value (ApoC3 peptide … S62N) was 126% and the “% of binding to wild-type peptide” value (ApoC3 peptide … D66Q) was 0%. The “% of binding to wild-type peptide” value (ApoC3 peptide … E63R) was 5.31%, the “% of binding to wild-type peptide” value (ApoC3 peptide … E70R) was 0% and the “% of binding to wild-type peptide” value (ApoC3 peptide … D59T) was 101%. For the same binder, the “% of binding to wild-type peptide” value (ApoC3 peptide … P69T) was 118%, the “% of binding to wild-type peptide” value (ApoC3 peptide … E70T) was 1.55% and the “% of binding to wild-type peptide” value (ApoC3 peptide … D59V) was 65.1%. For the same binder, the “% of binding to wild-type peptide” value (ApoC3 peptide … W65V) was 24%, the “% of binding to wild-type peptide” value (ApoC3 peptide … E63W) was 1.91% and the “% of binding to wild-type peptide” value (ApoC3 peptide … L67Y) was 3.08%.
